Assay results as given in the supplement of paper PMC11865577.

Legend:
Experiment in all cases: pull-down binding Z-score (relative to library population); higher = stronger binding
[1] = system: G-clamp-N3 (biotin conjugate); conditions: RNA library: Library-1 (pre-miRNA loops + repeats)
Method in brief: (§1)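 The RNA library, end-labelled with Cy5 or Cy3, was heat-folded in phosphate/NaCl/KCl buffer, and 1 μg was incubated at 25 °C for 60 min with streptavidin beads carrying 100 pmol of biotin-conjugated small molecule. Hot SDS released the bound RNA, which was then hybridised to a DNA barcode microarray for 20 h at 55.5 °C. For scoring binding, signal from beads alone was subtracted, replicate barcoded probes were averaged after discarding the highest and lowest, and each value was turned into a Z-score from the library mean and standard deviation.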

[2] = system: TO-3-N3 (biotin conjugate); conditions: RNA library: Library-2
Method in brief: as §1

[3] = system: TO-3-N3-2 (biotin conjugate); conditions: RNA library: Library-2
Method in brief: as §1

[4] = system: TO-N3 (biotin conjugate); conditions: RNA library: Library-2
Method in brief: as §1

[5] = system: TO-N3-2 (biotin conjugate); conditions: RNA library: Library-2
Method in brief: as §1

Sequence | pull-down binding Z-score [1] | pull-down binding Z-score [2] | pull-down binding Z-score [3] | pull-down binding Z-score [4] | pull-down binding Z-score [5]
UUUCUCUUAUGUGAAAAAAAAGAAG [hsa-mir-525] | -1.41 | -0.283 | -0.174 | -0.463 | -0.745
UUUCUCUUGUCCAAAGGAAAAGAAG [hsa-mir-524] | -0.493 | -0.644 | -0.376 | -0.636 | -0.747
UUUCUCUUGUCUAAAAGAAAAGAAA [hsa-mir-518f] | -0.201 | -0.761 | -0.281 | -0.8 | -0.969
UUUCUGAAUUUGUGAGA [hsa-mir-4463] | -0.0109 | -0.00836 | -0.191 | -0.277 | -0.751
UUUCUGUUGUCUAAAAGAAAAGAAA [hsa-mir-527] | 0.0533 | -0.325 | -0.186 | -0.383 | -0.575
UUUCUGUUGUCUAAAAGAAGAGAAA [hsa-mir-518a-2] | 0.832 | 0.159 | -0.0883 | 0.171 | -0.273
UUUCUGUUGUCUGAAAGAAAAGAAC [hsa-mir-523] | -0.976 | -0.301 | 0.0657 | -0.0983 | 0.513
UUUCUGUUGUCUGAAAGAAGAGAAA [hsa-mir-526b_518a-1] | 0.288 | -0.47 | -0.214 | -0.697 | -0.584
UUUCUGUUGUCUGAAAGCAGA [hsa-mir-515-1_515-2] | -0.445 | 0.216 | 0.223 | 0.262 | -0.0707
UUUCUUAAAUUUUAUAUAUUGGAA [hsa-mir-1284] | -0.71 | 0.193 | -0.0723 | -0.124 | -1.11
UUUGCAUCUGGACGACGAAU [hsa-mir-409] | -0.465 | -0.355 | -0.0371 | -0.021 | 0.523
UUUGCCAAUAAAAGUAAUGACAAA [hsa-mir-548ah] | -1.16 | 0.507 | 0.181 | 0.226 | -0.39
UUUGCCAGAGCUACAAAGGCAAA [hsa-mir-561] | 0.627 | -0.527 | -0.521 | -0.845 | -0.512
UUUGCCAUUAAAAGUAACGACAAA [hsa-mir-548a-1] | -0.965 | -0.873 | -0.389 | -1.11 | -0.81
UUUGCCAUUAAAAGUAAUGCGGCCAA [hsa-mir-548o-2] | -1.43 | -0.219 | 0.0369 | -0.0582 | -0.13
UUUGCCAUUAAAAGUAAUGGUAAA [hsa-mir-548x-2] | -0.261 | -0.753 | -0.616 | -1.29 | -1.58
UUUGCCAUUACUUUCAGUAGCAAA [hsa-mir-548c] | -0.417 | -0.131 | -0.441 | -0.379 | -0.814
UUUGCCAUUACUUUCAGUGGCAAA [hsa-mir-548aq] | 0.135 | -0.975 | -0.894 | -1.48 | -1.11

Sequence | pull-down binding Z-score [1] | pull-down binding Z-score [2] | pull-down binding Z-score [3] | pull-down binding Z-score [4] | pull-down binding Z-score [5]
UUUGCCAUUAUAAUGGCAAA [hsa-mir-548ae-1] | -0.11 | -0.806 | -0.855 | -1.37 | -1.71
UUUGCCAUUGAAAGUAAUGGCAAA [hsa-mir-548d-2] | 0.739 | -0.691 | -0.422 | -1.12 | -1.04
UUUGCCGUCGAAAAUAAUGGCAAA [hsa-mir-548am] | -0.204 | -0.422 | -0.146 | -0.71 | -0.502
UUUGCCGUUAAAAGUAAUGGCA [hsa-mir-548a-2] | -1.31 | -0.228 | -0.17 | -0.368 | -0.106
UUUGCCGUUGCUUUUAAUGGUAAA [hsa-mir-548as] | -0.134 | -0.291 | -0.381 | -0.571 | -1.31
UUUGCCUAUAAAAGUAAUGGCAAA [hsa-mir-548an] | 0.207 | -0.247 | -0.19 | -0.512 | -0.888
UUUGCCUCUCUCAGAAAAUAGAGUCAAA [hsa-mir-4694] | 0.239 | 0.229 | -0.0805 | 0.157 | -0.759
UUUGCCUGUAAAAGUAAUGGCAAA [hsa-mir-548d-1] | -0.646 | -0.488 | -0.105 | -0.702 | -0.552
UUUGCGUUACUUUCAAUCGUAAA [hsa-mir-548x] | -0.79 | -1.01 | -0.253 | -1.13 | -1.46
UUUGCUACUGAAAGUAAUGGCAAA [hsa-mir-548z] | 0.365 | -0.614 | -0.468 | -0.792 | -0.632
UUUGCUAUUACUUUUAAUGGUAAA [hsa-mir-548aj-2] | 1.61 | -0.666 | -0.502 | -0.932 | -1.19
UUUGCUAUUUUUUUUUAAUGGCAAA [hsa-mir-548ac] | 0.725 | -0.607 | -0.0611 | -1.01 | -1.46
UUUGCUGUUGAACGUAGUGGUAA [hsa-mir-548ar] | -0.679 | 0.181 | 0.0962 | 0.407 | 0.387
UUUGGCUGCCAAAAGAAAUGGCCAAA [hsa-mir-548at] | -0.71 | -0.656 | -0.331 | -0.547 | -0.668
UUUGGUAUUACUUUCAGUGGCAAA [hsa-mir-548j] | 0.937 | -0.416 | 0.0283 | -0.448 | -0.485
UUUGUACGGCACUGUGGCCACGUCCAAA [hsa-mir-497] | -0.884 | -0.121 | -0.306 | -0.0106 | 0.0542
UUUGUAUUGUGGUUCAGUACCAUGCAAA [hsa-mir-6507] | -0.552 | -0.367 | -0.36 | -0.633 | -0.933
UUUGUCAUUAAAGUAAUGCAAA [hsa-mir-548m] | -0.115 | 0.175 | -0.211 | 0.0311 | -0.856
